# From PMC3503143
# Experiments:
# [1] = target: AbBphP1 holoprotein (bacteriophytochrome 1 of Azospirillum brasilense Sp7, biliverdin-bound) (Azospirillum brasilense Sp7); assay: SEC
# [2] = target: AbBphP1 holoprotein (bacteriophytochrome 1 of Azospirillum brasilense Sp7, biliverdin-bound) (Azospirillum brasilense Sp7); assay: cross-linking
substance,measurement,setting,value
"AbBphP1 holoprotein (bacteriophytochrome 1 of Azospirillum brasilense Sp7, biliverdin-bound) (natural protein)",stoichiometry N,[1],2
same,stoichiometry N,[2],2
